Literature values in PMC6997106.

Target: RAGE V-domain V-domain (Homo sapiens) (UniProt Q15109)
Assay: SPR

Chain of S100B (P04271 2-92): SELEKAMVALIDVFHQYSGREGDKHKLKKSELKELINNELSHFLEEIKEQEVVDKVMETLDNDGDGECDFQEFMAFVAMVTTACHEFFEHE
Chain of RAGE V-domain V-domain (Homo sapiens) (Q15109 23-116): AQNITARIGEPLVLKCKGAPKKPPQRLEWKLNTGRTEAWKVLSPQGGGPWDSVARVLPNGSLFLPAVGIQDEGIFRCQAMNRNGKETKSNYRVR

S100B (from UniProt P04271)
Kd: 500 nM
